Measurements: patent JP2008278814A (dated 2008)

Columns and labels:
[1] = target: T1, ヒトGITR(glucocorticoid-induced tumor necrosis factor receptor-family related gene) (human, UniProt Q9Y5U5 26-241); assay: cell ELISA and flow cytometry of hybridoma supernatant on 293T/GITR cells
T1 construct: whole, on cells; also called TNFRSF18
T1 sequence (looked up): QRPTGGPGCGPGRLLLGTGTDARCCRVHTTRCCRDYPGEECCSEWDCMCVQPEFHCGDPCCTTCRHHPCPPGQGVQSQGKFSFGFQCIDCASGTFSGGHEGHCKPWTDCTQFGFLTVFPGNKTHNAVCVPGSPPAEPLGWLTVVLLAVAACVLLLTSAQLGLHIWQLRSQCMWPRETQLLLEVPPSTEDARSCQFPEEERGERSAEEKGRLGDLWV

[2] = target: T2, GITR断片(アミノ酸翻訳部分N末端1-60番目)−HIDE1の膜貫通領域−mycタグ (human); assay: immunoprecipitation from 293T lysate, Western blot with HRP-labelled anti-myc antibody
T2 construct: domain: 膜貫通領域; Includes the signal peptide as encoded; no cleavage site stated; also called GITRの1-180塩基長; N末端1-60番目のGITR断片; not shown: HIDE1 transmembrane region; myc tag
T2 chain: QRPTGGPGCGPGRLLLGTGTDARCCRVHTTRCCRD

[3] = target: T3, GITR断片(アミノ酸翻訳部分N末端1-65番目)−HIDE1の膜貫通領域−mycタグ (human, UniProt Q9Y5U5 26-65); assay: as above
T3 construct: domain: 膜貫通領域; Includes the signal peptide as encoded; no cleavage site stated; also called N末端1-65番目のGITR断片; not shown: HIDE1 transmembrane region; myc tag
T3 chain: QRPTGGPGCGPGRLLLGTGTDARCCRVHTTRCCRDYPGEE

[4] = target: T4, GITR断片(アミノ酸翻訳部分N末端1-72番目)−HIDE1の膜貫通領域−mycタグ (human, UniProt Q9Y5U5 26-72); assay: as above
T4 construct: domain: 膜貫通領域; also called N末端1-72番目のGITR断片; not shown: HIDE1 transmembrane region; myc tag
T4 chain: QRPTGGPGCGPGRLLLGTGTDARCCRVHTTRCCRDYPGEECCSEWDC

Measured: binding result

B1: 抗ヒトGITRモノクローナル抗体(40-44抗体) (antibody, V domains shown)
VH: QVQLQQSGAELVRPGTSVKVSCKASGYAFSNYLIEWVKQRPGQGLEWIGVINPGSGSTNYNEKFKGKATLTADKSSSTAYMQLSSLTSDDSAVYFCARRTYYYGSNYYAMDYWGQGTSVTVSS
VL: DIQMNQSPSSLSSSLGDTITITCHASQNINVWLSWYQQKPGNIPKLLIYKASNLHTGVPSRFSGSGSGTGFTLTISSLQPEDIATYYCQQGQSYPFTFGSGTKLEIK
notes: Mouse (Balb/c) hybridoma monoclonal antibody; mouse IgG2A and mouse IgG1 were used as controls in different experiments; also called 抗ヒトGITR抗体
binds: [1] | [2] | [3] | [4]
